Experimental findings from US20050025779A1 are described below.

Holding throughout (test): cell-based or functional assay
Experiment [1] deals with HIV-1 JRCSF envelope glycoprotein, on pseudotyped virus (HIV-1).
For experiment [2], the target named is HIV-1 NL4-3 envelope glycoprotein, on pseudotyped virus (HIV-1).
Experiment [3] has as its target HIV-1 92HT594 envelope glycoprotein, on pseudotyped virus (HIV-1).
Experiment [4] addresses amphotropic murine leukemia virus envelope protein, on pseudotyped virus (amphotropic murine leukemia virus).

Some results are limits rather than exact numbers.

Consider monoclonal antibody 2F5, for which the IC50 of virus infectivity (neutralization), U87 CD4/CCR5 cells was 2.1 µg/mL in experiment [1], 0.857 µg/mL in experiment [3] and greater than 50 µg/mL in experiment [4]. Also, the IC50 of virus infectivity (neutralization), U87 CD4/CXCR4 cells was 0.477 µg/mL in experiment [2], 0.748 µg/mL in experiment [3] and greater than 50 µg/mL in experiment [4].
Consider monoclonal antibody 4E10, for which the results for the IC50 of virus infectivity (neutralization), U87 CD4/CCR5 cells in experiment [1], in experiment [3] and in experiment [4] were 7.91 µg/mL, 2.94 µg/mL and greater than 50 µg/mL, respectively. Further, the IC50 of virus infectivity (neutralization), U87 CD4/CXCR4 cells in experiment [2] was 1.42 µg/mL; in experiment [3], 2.67 µg/mL; in experiment [4], greater than 50 µg/mL.
Consider monoclonal antibody 2G12, for which the figures for the IC50 of virus infectivity (neutralization), U87 CD4/CCR5 cells in experiment [1], in experiment [3] and in experiment [4] were 0.764 µg/mL, 1.94 µg/mL and greater than 50 µg/mL, respectively. The IC50 of virus infectivity (neutralization), U87 CD4/CXCR4 cells is 0.473 µg/mL in experiment [2], 2.39 µg/mL in experiment [3] and greater than 50 µg/mL in experiment [4].
